This note sets out measurements from patent US20230303711A1 (BIO THERA SOLUTIONS, published 2023).

Residue numbers refer to the chain shown, from its start. In names and notes the source's numbering stands.

In one experiment the target is T1, macaque CD47-Fc (macaque, UniProt A0A2K5X523 19-141).
T1 construct: Bought reagent; not shown: Fc part of the bought fusion and any linker to it
Briefly: ELISA on coated macaque CD47-Fc; row printed as Affinity (µg/mL). In general terms: ELISA stands for enzyme-linked immunosorbent assay.

Experiment [1] concerns the target T2, His-tagged human CD47-ECD protein (CD47-His) (human, UniProt Q08722 19-139).
T2 construct: Expressed in HEK293F cells; also called CD47-His antigen
The experiment in a line: competitive ELISA on coated CD47-His (2 µg/mL); blocked ligand SIRPα-Fc-Bio (0.1 µg/mL), HRP-streptavidin, OD450; value is parameter C of the printed 4-parameter fit.

Experiment [2] addresses T2, His-tagged human CD47-ECD protein …. The experiment is described as above. The source holds these as a separate data set.
Experiment [3] has the same target. The description is as above. This is another data set of the same source.
Experiment [4] has the same target. Briefly: BLI (Fortebio), antibody on protein A sensor, CD47-His in solution. In general terms: In BLI a coated tip is dipped into the sample, and binding shifts an interference pattern.
Experiment [5] shares this target. Briefly: competitive ELISA on coated CD47-His (2 µg/mL); blocked ligand SIRPα-Fc-Bio (0.1 µg/mL), HRP-streptavidin, OD450; value is parameter C of the printed 4-parameter fit; inhibition is partial (A 1.373, D 0.661).
The target of experiment [6] is T3, CD47 on the cell surface (CHO-CD47 cells, Jurkat cells, Raji cells) (human, UniProt Q08722 19-323).
T3 construct: whole, on cells; One molecule is used for CD47 on CHO-CD47, Jurkat and Raji cells; also called CHO surface CD47; Jurkat cell surface CD47
Briefly: flow cytometry competition on CHO-CD47 cells; blocked ligand SIRPα-Fc-Bio (6.5 µg/mL), streptavidin-PE; value is parameter C of the printed 4-parameter fit.

The target in experiment [7] is T3, CD47 on the cell surface (CHO-CD47 …). Briefly: flow cytometry on CHO-CD47 cells, goat anti-human IgG Fc-PE, PE-A mean fluorescence. (In flow cytometry, cells or beads pass a laser one at a time.)
Experiment [8] has the same target. Briefly: flow cytometry on Jurkat cells, goat anti-human IgG Fc-PE, PE-A mean fluorescence.

T1 sequence (A0A2K5X523 entry or part of it limits assumed): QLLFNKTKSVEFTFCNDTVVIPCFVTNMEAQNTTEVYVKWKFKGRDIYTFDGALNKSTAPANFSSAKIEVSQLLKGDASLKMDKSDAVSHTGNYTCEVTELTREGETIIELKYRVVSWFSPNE

B1: Antibody 17 (antibody, human IgG1, kappa, V domains shown)
VH: QVQLQESGPGLVKPSETLSLTCTVSGGSLDNYYWSWIRQPPGKGLEWIGYIYYSGNTNYNPSLKSRVTISVDTSKNQFSLRLRSVTAADTAVYYCARGGRFLERYWGQGTLVTVSS
VL: DIQMTQSPSSVSASVGDRVTISCRANQAIGTWLAWYQQKPGKAPKLLIYAASTLQSGVPSRFSGSGSGTEFTLTISSLQAEDVAVYYCQQYYTTPLTFGGGTKLEIKR
notes: Full-length IgG1
In the case of B1, in the experiment with macaque CD47-Fc, the EC50 worked out at 0.064 µg/mL. Besides, the IC50 in experiment [1] was found to be 0.795 µg/mL.

B2: Antibody 18 (antibody, human IgG1, kappa, V domains shown)
VH: QVQLQESGPGLVKPSETLSLTCTVSGGSLDNYYWSWIRQPPGKGLEWIGYIYYSGNTNYNPSLKSRVTISVDTSKNQFSLRLRSVTAADTAVYYCARGRGIFGYWGQGTLVTVSS
VL: B1 VL
notes: Full-length IgG1
In experiment [2], B2 gave an IC50 of 1.23 µg/mL.

B3: Antibody 24 (antibody, human IgG1, kappa, V domains shown)
VH: B1 VH with Y50R, Y53G, S54D, G55S, N56A, F101I, L102F, E103S, R104G
VL: B1 VL
notes: Full-length IgG1
The molecule B3 yielded an IC50 in [2] of 1.41 µg/mL.

B4: Antibody 25 (antibody, human IgG1, kappa, V domains shown)
VH: B2 VH with R99G, G100R, Y104H
VL: B1 VL
notes: Full-length IgG1
B4 returned an IC50 in experiment [2] of 1.31 µg/mL.

B5: Antibody 16 (antibody, human IgG1, kappa, V domains shown)
VH: B1 VH with F101I, L102F, E103S, R104G
VL: B1 VL
notes: Full-length IgG1
B5 displayed an IC50 in experiment [2] of 0.975 µg/mL.

B6: Antibody 6Y-G1 (antibody, human IgG1, kappa)
heavy: not shown
light: EIVLTQSPSSLSASVGDRVTIPCRASLSIGSFLNWYQQRPGEAPKLLIFAASSLRSGVPSRFSGSGSGTDFTLTISGLQPEDFATYYCQQTYTTPYTFGQGTKVDIKRTVAAPSVFIFPPSDEQLKSGTASVVCLLNNFYPREAKVQWKVDNALQSGNSQESVTEQDSKDSTYSLSSTLTLSKADYEKHKVYACEVTHQGLSSPVTKSFNRGEC
notes: also called Antibody L12-6; L12-6
In turn, B6 showed an EC50 with macaque CD47-Fc of 0.083 µg/mL. Moreover, the IC50 in experiment [3] is 0.913 µg/mL. For the same molecule, the Kd in experiment [4] was determined as 0.142 nM.

B7: Antibody 6Y-G4 (antibody, human IgG4 S228P, kappa)
heavy: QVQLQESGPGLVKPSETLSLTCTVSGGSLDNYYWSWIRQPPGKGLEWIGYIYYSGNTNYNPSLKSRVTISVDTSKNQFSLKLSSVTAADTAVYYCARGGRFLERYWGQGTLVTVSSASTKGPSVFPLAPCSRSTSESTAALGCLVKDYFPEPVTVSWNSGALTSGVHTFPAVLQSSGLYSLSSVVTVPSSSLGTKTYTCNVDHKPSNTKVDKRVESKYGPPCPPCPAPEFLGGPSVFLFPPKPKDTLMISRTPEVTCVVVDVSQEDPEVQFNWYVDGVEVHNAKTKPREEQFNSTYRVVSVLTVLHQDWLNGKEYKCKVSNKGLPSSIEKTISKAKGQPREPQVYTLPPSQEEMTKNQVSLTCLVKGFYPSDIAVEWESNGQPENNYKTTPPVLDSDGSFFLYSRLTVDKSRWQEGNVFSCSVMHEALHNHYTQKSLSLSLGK
light: B6 light
notes: IgG4P (S228P) form of 6Y-G1
The molecule B7 yielded an EC50 with macaque CD47-Fc of 0.11 µg/mL. This molecule also registered an IC50 in experiment [3] of 0.763 µg/mL.

B8: Antibody L1 (antibody, human IgG1, kappa)
heavy: not shown
light: B6 light with S10T, D105E
notes: Full-length IgG1
Regarding B8, the IC50 in [1] was 0.967 µg/mL.

B9: Antibody L5 (antibody, human IgG1, kappa)
heavy: not shown
light: B6 light with Q100P, K103R, V104L, D105E
notes: Full-length IgG1
Take B9: the IC50 in [1] was 1.02 µg/mL.

B10: Antibody L12 (antibody, human IgG1, kappa)
heavy: not shown
light: B6 light
notes: Full-length IgG1
On to B10, for which the EC50 with macaque CD47-Fc came to 0.066 µg/mL. Further, the IC50 in experiment [2] came out at 1.18 µg/mL. Further, the Kd in experiment [4] was determined as 0.112 nM.

B11: Antibody L24 (antibody, human IgG1, kappa)
heavy: not shown
light: B6 light with E1D, V3Q, L4M, G77S, D105E
notes: Full-length IgG1
Regarding B11, the IC50 in experiment [1] stood at 1.09 µg/mL.

B12: Antibody L26 (antibody, human IgG1, kappa)
heavy: not shown
light: B6 light with G77S, V104L, D105E
notes: Full-length IgG1
B12 yielded an IC50 in experiment [1] of 1.02 µg/mL. The IC50 values of the last two molecules are within 1.5-fold of each other.

B13: Antibody 17-ScFv (scFv)
scFv: QVQLQESGPGLVKPSETLSLTCTVSGGSLDNYYWSWIRQPPGKGLEWIGYIYYSGNTNYNPSLKSRVTISVDTSKNQFSLRLRSVTAADTAVYYCARGGRFLERYWGQGTLVTVSSGGGGSGGGGSGGGGSDIQMTQSPSSVSASVGDRVTISCRANQAIGTWLAWYQQKPGKAPKLLIYAASTLQSGVPSRFSGSGSGTEFTLTISSLQAEDVAVYYCQQYYTTPLTFGGGTKLEIK
notes: VH C-terminus linked to VL N-terminus; Purified on a protein A column and detected with anti-human IgG Fc-PE, but no Fc or tag is described for it
For the molecule B13, the IC50 in experiment [5] amounted to 0.936 µg/mL; in experiment [6], 15.1 µg/mL. The “EC50 (read off the curve)” value in experiment [7] and in [8] was approximately 1 µg/mL each time.

The term EC50 denotes the midpoint of the concentration-response curve. High values mean a need for much substance, low ones an effect from little substance. A word on the IC50: it is the midpoint of a concentration-inhibition curve. The low end stands for greater potency in that assay, the high end for weaker potency in that assay. Usually Kd stands for the constant that tells how readily two partners part at equilibrium. Low readings indicate higher affinity, high ones lower affinity. What is called EC50 (read off the curve) is the concentration that produces a half-maximal response. A higher EC50 (read off the curve) goes with weaker potency.
